Test results: the supplement of paper PMC9112550, “Optimization of the antimicrobial peptide Bac7 by deep mutational scanning” (BMC Biology, 2022)

These sequences were tested on Escherichia coli TOP10 (assay: shrunken log2 fold change of peptide-encoding DNA abundance (4.5 h post-induction vs induction); higher = less antimicrobial activity (less host growth inhibition)). Details: time post-induction: 4.5 h; library: site-saturation at positions 5, 18, 19, 20.
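Also: peptides expressed intracellularly from a pBAD plasmid library in pooled LB shake-flask culture, induced with 0.3% L-arabinose, DNA abundance read by NGS, three biological replicates, DESeq2 with apeglm shrinkage.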

Row | Sequence | shrunken log2 fold change
1 | RRIRDRPPRLPRPRPRPRKTPRP | 0.379
2 | RRIRMRPPRLPRPRPRPKHSPRP | 0.247
3 | RRIRYRPPRLPRPRPRPTYPPRP | 0.105
4 | RRIRNRPPRLPRPRPRPICRPRP | -0.0024
5 | RRIRHRPPRLPRPRPRPFFQPRP | -0.202
6 | RRIRTRPPRLPRPRPRPLCDPRP | -0.714
7 | RRIRRRPPRLPRPRPRPCLSPRP | -0.114
8 | RRIRLRPPRLPRPRPRPSDRPRP | -0.147
9 | RRIRDRPPRLPRPRPRPGDPPRP | 0.293
10 | RRIRMRPPRLPRPRPRPKEAPRP | -0.00711
11 | RRIRKRPPRLPRPRPRPYVTPRP | -0.401
12 | RRIRQRPPRLPRPRPRPIISPRP | -0.189
13 | RRIRRRPPRLPRPRPRPDVIPRP | -0.068
14 | RRIRLRPPRLPRPRPRPQEFPRP | 0.00998
15 | RRIRQRPPRLPRPRPRPTLIPRP | -0.131
16 | RRIRFRPPRLPRPRPRPLQIPRP | -0.384
17 | RRIRVRPPRLPRPRPRPALYPRP | 0.22
18 | RRIRYRPPRLPRPRPRPEKFPRP | -0.0136
19 | RRIRRRPPRLPRPRPRPIRMPRP | 0.302
20 | RRIRPRPPRLPRPRPRPCICPRP | -0.728
21 | RRIRLRPPRLPRPRPRPFSGPRP | -0.374
22 | RRIRGRPPRLPRPRPRPIVRPRP | 0.211
23 | RRIRDRPPRLPRPRPRPMNLPRP | -0.1
24 | RRIRRRPPRLPRPRPRPYDCPRP | -0.113
25 | RRIRMRPPRLPRPRPRPVVIPRP | -0.174

Row | Sequence | shrunken log2 fold change
26 | RRIRSRPPRLPRPRPRPWFNPRP | -0.227
27 | RRIRTRPPRLPRPRPRPLRYPRP | -0.255
28 | RRIRERPPRLPRPRPRPEYNPRP | -0.274
29 | RRIRSRPPRLPRPRPRPFCMPRP | -0.324
30 | RRIRVRPPRLPRPRPRPPAWPRP | 0.498
31 | RRIRLRPPRLPRPRPRPRKDPRP | 0.0699
32 | RRIRIRPPRLPRPRPRPGGQPRP | 0.112
33 | RRIRVRPPRLPRPRPRPNDDPRP | -0.299
34 | RRIRLRPPRLPRPRPRPDKIPRP | -0.494
35 | RRIRCRPPRLPRPRPRPVYSPRP | -0.156
36 | RRIRFRPPRLPRPRPRPYMKPRP | -0.858
37 | RRIRFRPPRLPRPRPRPKPMPRP | 0.521
38 | RRIRSRPPRLPRPRPRPCETPRP | 0.18
39 | RRIRWRPPRLPRPRPRPQNEPRP | -0.18
40 | RRIRSRPPRLPRPRPRPCFMPRP | 0.914
41 | RRIRLRPPRLPRPRPRPNWFPRP | -0.00982
42 | RRIRDRPPRLPRPRPRPLESPRP | 0.258
43 | RRIRARPPRLPRPRPRPGMTPRP | 0.261
44 | RRIRVRPPRLPRPRPRPTDRPRP | -0.00137
45 | RRIRFRPPRLPRPRPRPSDNPRP | -0.527
46 | RRIRTRPPRLPRPRPRPCECPRP | 0.0538
47 | RRIRFRPPRLPRPRPRPPAVPRP | 0.713
48 | RRIRVRPPRLPRPRPRPYPEPRP | 1.13
49 | RRIRMRPPRLPRPRPRPVYSPRP | -0.248
50 | RRIRVRPPRLPRPRPRPNHNPRP | -0.638

Row | Sequence | shrunken log2 fold change
51 | RRIRKRPPRLPRPRPRPAGVPRP | 0.685
52 | RRIRIRPPRLPRPRPRPESDPRP | 0.052
53 | RRIRRRPPRLPRPRPRPQVWPRP | 0.409
54 | RRIRFRPPRLPRPRPRPYWPPRP | -0.336
55 | RRIRRRPPRLPRPRPRPYDIPRP | -0.249
56 | RRIRMRPPRLPRPRPRPRWHPRP | 0.378
57 | RRIRDRPPRLPRPRPRPMTQPRP | 0.0403
58 | RRIRERPPRLPRPRPRPIHDPRP | 0.0116
59 | RRIRNRPPRLPRPRPRPCPHPRP | -0.01
60 | RRIRKRPPRLPRPRPRPWWFPRP | -0.0467
61 | RRIRNRPPRLPRPRPRPWTAPRP | -0.0401
62 | RRIRRRPPRLPRPRPRPMDKPRP | -0.283
63 | RRIRWRPPRLPRPRPRPSGHPRP | -0.195
64 | RRIRFRPPRLPRPRPRPFKVPRP | -0.327
65 | RRIRGRPPRLPRPRPRPVGEPRP | 1.23
66 | RRIRCRPPRLPRPRPRPFWIPRP | -0.513
67 | RRIRHRPPRLPRPRPRPMRGPRP | 0.384
68 | RRIRPRPPRLPRPRPRPRRPPRP | 0.489
69 | RRIRIRPPRLPRPRPRPIKQPRP | 0.00391
70 | RRIRMRPPRLPRPRPRPNAIPRP | 0.0397
71 | RRIRERPPRLPRPRPRPIAWPRP | -0.199
72 | RRIRDRPPRLPRPRPRPWVWPRP | 0.702
73 | RRIRYRPPRLPRPRPRPTAWPRP | -0.011
74 | RRIRHRPPRLPRPRPRPPGGPRP | 0.443
75 | RRIRTRPPRLPRPRPRPEEFPRP | -0.0783

Row | Sequence | shrunken log2 fold change
76 | RRIRERPPRLPRPRPRPHHNPRP | -0.817
77 | RRIRSRPPRLPRPRPRPSMLPRP | -0.3
78 | RRIRMRPPRLPRPRPRPDIRPRP | -0.00649
79 | RRIRMRPPRLPRPRPRPGVRPRP | 1.42
80 | RRIRGRPPRLPRPRPRPTQCPRP | 0.222
81 | RRIRHRPPRLPRPRPRPFYMPRP | -0.292
82 | RRIRQRPPRLPRPRPRPAKFPRP | -0.103
83 | RRIRWRPPRLPRPRPRPKHPPRP | 0.442
84 | RRIRCRPPRLPRPRPRPQLPPRP | -0.104
85 | RRIRARPPRLPRPRPRPLFWPRP | 0.678
86 | RRIRQRPPRLPRPRPRPSAEPRP | 0.117
87 | RRIRCRPPRLPRPRPRPRNAPRP | 0.291
88 | RRIRLRPPRLPRPRPRPHIFPRP | -0.747
89 | RRIRWRPPRLPRPRPRPPMRPRP | 1.18
90 | RRIRHRPPRLPRPRPRPFKWPRP | -0.0376
91 | RRIRDRPPRLPRPRPRPMRHPRP | 0.089
92 | RRIRCRPPRLPRPRPRPTWKPRP | -0.114
93 | RRIRIRPPRLPRPRPRPLAGPRP | 0.00712
94 | RRIRRRPPRLPRPRPRPEDNPRP | 0.066
95 | RRIRNRPPRLPRPRPRPRKSPRP | 0.132
96 | RRIRTRPPRLPRPRPRPNTFPRP | -0.668
97 | RRIRTRPPRLPRPRPRPCLKPRP | -0.0017
98 | RRIRPRPPRLPRPRPRPTWDPRP | 0.42
99 | RRIRNRPPRLPRPRPRPYIVPRP | -0.314
100 | RRIRERPPRLPRPRPRPIMCPRP | -0.275

Row | Sequence | shrunken log2 fold change
101 | RRIRRRPPRLPRPRPRPWSLPRP | 0.016
102 | RRIRMRPPRLPRPRPRPMRTPRP | 0.502
103 | RRIRSRPPRLPRPRPRPIITPRP | -0.507
104 | RRIRVRPPRLPRPRPRPIKVPRP | -0.167
105 | RRIRPRPPRLPRPRPRPDGFPRP | -0.0011
106 | RRIRSRPPRLPRPRPRPLITPRP | -0.012
107 | RRIRNRPPRLPRPRPRPSQCPRP | -0.13
108 | RRIRFRPPRLPRPRPRPDYVPRP | -0.00174
109 | RRIRVRPPRLPRPRPRPSFQPRP | -0.22
110 | RRIRCRPPRLPRPRPRPQMCPRP | -0.157
111 | RRIRRRPPRLPRPRPRPMQCPRP | 0.00703
112 | RRIRWRPPRLPRPRPRPIAYPRP | 0.000575
113 | RRIRFRPPRLPRPRPRPMQNPRP | 0.027
114 | RRIRSRPPRLPRPRPRPRRSPRP | 0.181
115 | RRIRSRPPRLPRPRPRPYSKPRP | -0.994
116 | RRIRTRPPRLPRPRPRPRGCPRP | 0.261
117 | RRIRRRPPRLPRPRPRPVVHPRP | -0.157
118 | RRIRFRPPRLPRPRPRPRNKPRP | -0.174
119 | RRIRERPPRLPRPRPRPRKYPRP | -0.201
120 | RRIRLRPPRLPRPRPRPLKTPRP | -0.0135
121 | RRIRVRPPRLPRPRPRPEQKPRP | -0.0196
122 | RRIRRRPPRLPRPRPRPPTAPRP | 0.569
123 | RRIRARPPRLPRPRPRPKMIPRP | -0.0208
124 | RRIRRRPPRLPRPRPRPWEVPRP | 0.125
125 | RRIRGRPPRLPRPRPRPYRHPRP | 0.161

Row | Sequence | shrunken log2 fold change
126 | RRIRSRPPRLPRPRPRPHGIPRP | -0.273
127 | RRIRKRPPRLPRPRPRPDVCPRP | -0.0122
128 | RRIRYRPPRLPRPRPRPTLDPRP | -0.628
129 | RRIRIRPPRLPRPRPRPIMFPRP | -0.314
130 | RRIRDRPPRLPRPRPRPTDDPRP | -0.0281
131 | RRIRIRPPRLPRPRPRPFFNPRP | -0.501
132 | RRIRPRPPRLPRPRPRPDLIPRP | -0.036
133 | RRIRCRPPRLPRPRPRPIGKPRP | -0.188
134 | RRIRGRPPRLPRPRPRPTWSPRP | 0.977
135 | RRIRIRPPRLPRPRPRPHPEPRP | -0.023
136 | RRIRYRPPRLPRPRPRPYWTPRP | -0.00804
137 | RRIRHRPPRLPRPRPRPPRTPRP | 1.03
138 | RRIRRRPPRLPRPRPRPLYKPRP | -0.248
139 | RRIRQRPPRLPRPRPRPPIRPRP | -0.0146
140 | RRIRCRPPRLPRPRPRPESLPRP | -0.11
141 | RRIRYRPPRLPRPRPRPRNMPRP | -0.56
142 | RRIRLRPPRLPRPRPRPSKLPRP | -0.388
143 | RRIRERPPRLPRPRPRPEFVPRP | 0.137
144 | RRIRARPPRLPRPRPRPHSMPRP | 0.104
145 | RRIRCRPPRLPRPRPRPIWLPRP | 0.122
146 | RRIRLRPPRLPRPRPRPYSYPRP | -0.977
147 | RRIRPRPPRLPRPRPRPMFDPRP | -0.231
148 | RRIRFRPPRLPRPRPRPAMGPRP | 0.119
149 | RRIRDRPPRLPRPRPRPFVAPRP | 0.0541
150 | RRIRERPPRLPRPRPRPKQEPRP | -0.127
